Binding result and Kd data for one molecule are collected here from paper PMC4760375, “A dual phosphorylation switch controls 14-3-3-dependent cell surface expression of TASK-1” (Journal of Cell Science, 2016).

Non-standard residues stand in square brackets, D forms with d. No end group written: not given here. pS = N[C@@H](COP(=O)(O)O)C(=O)O

Assay [1] has as its target T1, 14-3-3η (human, UniProt Q04917 1-246).
T1 construct: 14-3-3 protein eta, human; open reading frame inserted into pMAL2Cx; also called 14-3-3 eta
T1 sequence (looked up): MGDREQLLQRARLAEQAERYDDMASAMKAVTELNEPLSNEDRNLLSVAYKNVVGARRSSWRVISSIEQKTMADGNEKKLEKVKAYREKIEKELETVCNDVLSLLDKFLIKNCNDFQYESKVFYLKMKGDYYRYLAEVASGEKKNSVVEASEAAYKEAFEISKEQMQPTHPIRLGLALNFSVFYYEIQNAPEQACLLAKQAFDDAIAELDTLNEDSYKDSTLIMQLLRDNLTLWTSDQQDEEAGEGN
The experiment in a line: fluorescence polarisation; 10 nM fluorescein-labelled peptide titrated with 14-3-3 protein (1 nM to 120 µM in the results, 100 µM to 1 nM in the methods); 20 mM MOPS, 150 mM NaCl, 0.005% (v/v) CHAPS pH 7.0; room temperature; monophasic fit. The following applies: both partners purified. For orientation: Polarisation of emitted light reports the rotation of a fluorescent probe.

Assay [2] deals with T2, 14-3-3γ (human, UniProt P61981 1-247).
T2 construct: 14-3-3 protein gamma, human; open reading frame inserted into pMAL2Cx; also called 14-3-3 gamma
T2 sequence (looked up): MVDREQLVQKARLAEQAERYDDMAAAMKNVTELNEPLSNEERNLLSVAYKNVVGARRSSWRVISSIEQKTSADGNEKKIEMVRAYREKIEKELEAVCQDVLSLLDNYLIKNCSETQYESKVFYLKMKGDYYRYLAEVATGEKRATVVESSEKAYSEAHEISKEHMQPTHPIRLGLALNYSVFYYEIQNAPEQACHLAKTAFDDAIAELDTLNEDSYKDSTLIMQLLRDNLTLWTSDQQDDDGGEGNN
The description is as above. The following applies: both partners purified.

The target of assay [3] is T3, 14-3-3ζ (human, UniProt P63104 1-245).
T3 construct: 14-3-3 protein zeta, human; open reading frame inserted into pMAL2Cx; also called 14-3-3 zeta
T3 sequence (looked up): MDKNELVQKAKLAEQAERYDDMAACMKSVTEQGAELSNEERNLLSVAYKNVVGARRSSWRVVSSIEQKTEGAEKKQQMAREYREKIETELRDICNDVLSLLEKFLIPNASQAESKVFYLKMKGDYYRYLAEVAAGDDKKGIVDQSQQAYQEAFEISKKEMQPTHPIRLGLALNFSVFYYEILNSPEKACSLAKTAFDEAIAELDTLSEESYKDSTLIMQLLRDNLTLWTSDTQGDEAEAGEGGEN
Described as above. The following applies: both partners purified.

Assay [4] addresses T4, 14-3-3τ (human, UniProt P27348 1-245).
T4 construct: 14-3-3 protein tau (theta), human; open reading frame inserted into pMAL2Cx; also called 14-3-3 tau
T4 sequence (looked up): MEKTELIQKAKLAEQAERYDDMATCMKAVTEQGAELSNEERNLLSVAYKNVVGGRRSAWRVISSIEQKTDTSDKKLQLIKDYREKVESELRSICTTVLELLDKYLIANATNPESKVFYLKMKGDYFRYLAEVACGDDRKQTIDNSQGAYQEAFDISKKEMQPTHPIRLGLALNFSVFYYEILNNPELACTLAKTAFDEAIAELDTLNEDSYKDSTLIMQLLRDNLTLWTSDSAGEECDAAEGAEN
The assay is described as above. To be noted: both partners purified.

Assay [5] has as its target T5, 14-3-3η (human, UniProt Q04917 1-246).
T5 chain: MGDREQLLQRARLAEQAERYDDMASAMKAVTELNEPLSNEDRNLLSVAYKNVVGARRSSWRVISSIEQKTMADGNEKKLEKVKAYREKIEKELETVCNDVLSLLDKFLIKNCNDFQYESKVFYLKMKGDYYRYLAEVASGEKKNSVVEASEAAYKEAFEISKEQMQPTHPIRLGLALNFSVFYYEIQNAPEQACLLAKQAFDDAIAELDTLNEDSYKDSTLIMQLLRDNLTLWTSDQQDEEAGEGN
Briefly: FP.

Assay [6] has as its target T6, 14-3-3ζ (human, UniProt P63104 1-245).
T6 chain: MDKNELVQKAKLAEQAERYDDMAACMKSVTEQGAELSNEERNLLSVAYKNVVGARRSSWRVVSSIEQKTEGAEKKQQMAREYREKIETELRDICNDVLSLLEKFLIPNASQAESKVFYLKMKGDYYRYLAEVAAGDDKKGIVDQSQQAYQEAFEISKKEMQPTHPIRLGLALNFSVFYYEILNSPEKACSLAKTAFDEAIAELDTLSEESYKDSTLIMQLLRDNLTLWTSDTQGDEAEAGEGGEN
The experiment in a line: FP.

Assay [7] has as its target T7, 14-3-3γ (human, UniProt P61981 1-247).
T7 chain: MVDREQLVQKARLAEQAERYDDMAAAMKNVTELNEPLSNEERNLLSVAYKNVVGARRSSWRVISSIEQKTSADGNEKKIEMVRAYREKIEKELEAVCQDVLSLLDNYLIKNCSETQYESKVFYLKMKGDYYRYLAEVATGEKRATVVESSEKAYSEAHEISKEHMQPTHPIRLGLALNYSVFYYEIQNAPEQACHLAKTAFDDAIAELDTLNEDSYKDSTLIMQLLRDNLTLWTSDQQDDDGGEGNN
Briefly: FP.

The target of assay [8] is T8, 14-3-3τ (human, UniProt P27348 1-245).
T8 chain: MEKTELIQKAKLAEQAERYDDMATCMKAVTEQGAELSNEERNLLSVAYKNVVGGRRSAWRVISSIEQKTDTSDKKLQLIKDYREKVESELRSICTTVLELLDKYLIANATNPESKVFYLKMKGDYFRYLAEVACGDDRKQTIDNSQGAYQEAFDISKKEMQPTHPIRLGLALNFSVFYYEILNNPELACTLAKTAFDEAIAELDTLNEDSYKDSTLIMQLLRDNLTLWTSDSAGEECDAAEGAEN
Briefly: FP.

The target in assay [9] is T9, 14-3-3ε (human, UniProt P62258 1-255).
T9 chain: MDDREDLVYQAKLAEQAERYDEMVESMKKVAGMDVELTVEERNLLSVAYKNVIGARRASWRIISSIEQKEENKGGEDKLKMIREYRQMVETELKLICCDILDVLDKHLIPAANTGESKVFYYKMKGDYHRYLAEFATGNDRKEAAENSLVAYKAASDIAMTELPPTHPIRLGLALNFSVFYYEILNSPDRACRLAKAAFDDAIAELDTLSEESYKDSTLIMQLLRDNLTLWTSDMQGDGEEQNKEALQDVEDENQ
Briefly: FP.

Assay [10] addresses T10, 14-3-3β (human, UniProt P31946 1-246).
T10 chain: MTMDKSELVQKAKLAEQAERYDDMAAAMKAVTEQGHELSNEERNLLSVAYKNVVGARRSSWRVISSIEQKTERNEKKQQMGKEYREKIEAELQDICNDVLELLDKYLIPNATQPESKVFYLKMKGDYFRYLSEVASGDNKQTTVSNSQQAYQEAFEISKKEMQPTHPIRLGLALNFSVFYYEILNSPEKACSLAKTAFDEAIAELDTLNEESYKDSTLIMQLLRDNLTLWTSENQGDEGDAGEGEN
Briefly: FP.

B1: TASK-3 pS373 ΔV374 C-terminal fluorescent peptide (peptide, UniProt Q9NPC2 360-374, looked up)
peptide: SFTDHQRLMKRRK[pS]
modifications: also: fluorescein label, position not given here
notes: TASK-3 (KCNK9), human, C-terminal peptide with phosphorylated S373 but lacking the C-terminal valine V374; ends at pS373; source: synthetic peptide, bought: Peps4Life Sciences
For orientation: Kd means the concentration at which binding is half-saturated. Regarding B1, the binding result in [1], in assay [2], in assay [3] and in [4] was “binds” in each case. Besides, the dissociation constant Kd in [5] was 1600 nM; in [6], 3.3 µM; in [7], 1100 nM; in assay [8], 2400 nM; in [9] it was 18 µM; in assay [10], 1200 nM.
